Values of other authors as cited in paper PMC12667676.

Biological target: MCHR1 (Homo sapiens) (UniProt Q99705)
UniProt Q99705, sequence (Q99705 whole entry): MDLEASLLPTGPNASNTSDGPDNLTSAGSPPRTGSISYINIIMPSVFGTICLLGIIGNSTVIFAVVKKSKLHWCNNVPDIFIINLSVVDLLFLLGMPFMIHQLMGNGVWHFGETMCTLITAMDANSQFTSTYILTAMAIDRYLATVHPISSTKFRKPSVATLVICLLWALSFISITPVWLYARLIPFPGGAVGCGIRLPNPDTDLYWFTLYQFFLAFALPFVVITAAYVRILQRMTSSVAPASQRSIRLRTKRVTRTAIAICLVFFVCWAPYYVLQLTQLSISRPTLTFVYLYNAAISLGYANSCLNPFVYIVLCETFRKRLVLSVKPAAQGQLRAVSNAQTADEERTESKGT

Kd: 3.1 nM
Substance: melanin-concentrating hormone (from UniProt P20382)
